Here are results for one molecule from paper PMC7749166 (Communications Biology, 2020).

In the test the target is T1, C5aR^D282A (Homo sapiens, UniProt P21730, D282A).
T1 construct: Flag (N); His8 (C); made in house; host or cells: HEK-293S cells (BacMam baculovirus)
T1 sequence (P21730 1-350 D282A): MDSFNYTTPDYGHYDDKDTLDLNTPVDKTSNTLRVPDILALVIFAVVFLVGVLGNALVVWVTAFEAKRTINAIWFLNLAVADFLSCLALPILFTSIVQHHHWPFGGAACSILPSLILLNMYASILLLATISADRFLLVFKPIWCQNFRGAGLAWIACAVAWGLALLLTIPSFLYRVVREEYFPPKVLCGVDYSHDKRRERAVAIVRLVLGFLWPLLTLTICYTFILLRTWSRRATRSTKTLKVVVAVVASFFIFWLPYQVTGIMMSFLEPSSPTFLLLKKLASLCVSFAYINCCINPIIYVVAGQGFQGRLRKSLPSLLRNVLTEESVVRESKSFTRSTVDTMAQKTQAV
Put plainly: 35S-GTPγS binding assay, D282A mutant. The test is classed as biochemical. The note with it: increased concentration of C5a, Fig. S7. The procedure: Mutant variants (D282A, D282N, and R175V/Y258V) were generated based on the wtC5aR construct and fully sequenced. Mutant variants were expressed following the same method as for wtC5aR except for some modifications. HEK-293S cells expressing each mutant were pelleted by centrifugation and resuspended in 20 ml buffer containing 20 mM HEPES pH 7.5, 100 mM NaCl, 0.2 μg ml^−1 leupeptin, and 150 μg ml^−1 benzamidine. After 20 min incubation at 25 °C, 20 ml 2X solubilization buffer containing 20 mM HEPES pH 7.5, 100 mM NaCl, 1% dodecyl-maltoside (DDM), 0.2% cholesterol hemisuccinate (CHS), 20% glycerol, 0.2 μg ml^−1 leupeptin, 150 μg ml^−1 benzamidine, and 5 U Salt Active Nuclease (Sigma) was added. Cell membranes were solubilized for 1.5 h at 4 °C. […]
For the ^35S-GTPγS binding assays, the membrane of HEK293S GnTI^− cells expressing wtC5aR (~200 µg ml^−1) or mutant variants was incubated with 200 nM purified Gi protein for 30 min on ice in buffer containing 20 mM HEPES pH 7.5, 100 mM NaCl, 5 mM MgCl2, 3 μg ml^−1 BSA, 0.1 μM TCEP, and 5 μM GDP to get the receptor and Gi complex. […] The radiation of bound ^35S-GTPγS was measured on a Beckman LS6500 scintillation counter to determine the binding of ^35S-GTPγS to Gi induced by C5aR activation. […]
In general terms: GTPγS resists hydrolysis and so accumulates on activated G proteins.

B1: C5a: C5a, a large 74-amino acid glycoprotein; endogenous ligand of C5aR (His6-tag at N-terminal end for AFM tips) (protein)
chain: TLQKKIEEIAAKYKHSVVKKCCYDGACVNNDETCEQRAARISLGPRCIKAFTECCVVASQLRANISHKDMQLGR
modifications: left off: His6, N-terminal, kept
On to B1, for which the “Gi-protein activation vs C5aR^WT” value is listed as “strong reduction in the Gi-protein activation”.
